The results in this text go back to patent publication US20040110684A1.

Experiment [1] concerns the target endothelial nitric oxide synthase (eNOS), endogenous, human umbilical vein endothelial cells (HUVECs) (human) (UniProt P29474). The experiment is described as follows: eNOS IP, phospho-Ser473-Akt immunoblot, HUVEC lysates.
Experiment [2] deals with wild-type eNOS (construct expressed in COS cells) (UniProt P29474). Kind of experiment: cell-based or functional assay.
Experiment [3] addresses S1177A eNOS mutant (construct expressed in COS cells) (UniProt P29474). The experiment is described as follows: cell-based or functional assay.

Sequence of wild-type eNOS (construct expressed in COS cells) (P29474 2-1203 limits assumed): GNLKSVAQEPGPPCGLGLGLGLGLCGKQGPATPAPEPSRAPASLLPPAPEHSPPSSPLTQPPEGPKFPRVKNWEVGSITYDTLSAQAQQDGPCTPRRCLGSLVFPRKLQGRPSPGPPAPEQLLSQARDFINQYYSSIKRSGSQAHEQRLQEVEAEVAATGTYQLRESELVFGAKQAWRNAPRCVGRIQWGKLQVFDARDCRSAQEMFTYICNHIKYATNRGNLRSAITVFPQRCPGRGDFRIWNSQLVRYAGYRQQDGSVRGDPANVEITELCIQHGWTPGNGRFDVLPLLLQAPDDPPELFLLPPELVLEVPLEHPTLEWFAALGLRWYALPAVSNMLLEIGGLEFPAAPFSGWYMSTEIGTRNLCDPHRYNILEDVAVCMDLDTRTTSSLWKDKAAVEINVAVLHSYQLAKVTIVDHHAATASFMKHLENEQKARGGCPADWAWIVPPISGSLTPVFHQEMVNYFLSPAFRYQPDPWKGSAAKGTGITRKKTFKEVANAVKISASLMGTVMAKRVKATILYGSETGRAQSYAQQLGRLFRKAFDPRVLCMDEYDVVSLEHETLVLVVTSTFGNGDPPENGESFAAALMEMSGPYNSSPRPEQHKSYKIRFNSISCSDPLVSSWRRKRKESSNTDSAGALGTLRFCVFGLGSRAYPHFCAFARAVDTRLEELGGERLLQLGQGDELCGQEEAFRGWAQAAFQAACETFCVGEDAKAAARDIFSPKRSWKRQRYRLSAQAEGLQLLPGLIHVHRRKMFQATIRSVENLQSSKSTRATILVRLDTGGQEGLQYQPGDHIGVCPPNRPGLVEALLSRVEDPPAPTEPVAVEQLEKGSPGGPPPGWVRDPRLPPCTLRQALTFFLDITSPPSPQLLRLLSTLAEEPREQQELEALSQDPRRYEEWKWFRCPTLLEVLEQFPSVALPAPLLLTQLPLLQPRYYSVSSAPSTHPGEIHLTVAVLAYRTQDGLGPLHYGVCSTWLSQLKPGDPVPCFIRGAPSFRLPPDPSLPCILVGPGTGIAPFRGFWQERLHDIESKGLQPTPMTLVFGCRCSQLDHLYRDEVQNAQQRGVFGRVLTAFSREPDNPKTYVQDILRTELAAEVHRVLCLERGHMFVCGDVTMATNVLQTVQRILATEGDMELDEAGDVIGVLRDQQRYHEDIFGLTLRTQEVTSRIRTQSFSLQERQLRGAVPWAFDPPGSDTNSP
Sequence of S1177A eNOS mutant (construct expressed in COS cells) (P29474 2-1203 S1177A limits assumed): as the sequence (P29474 2-1203 limits assumed) above, with S1176A counted along it
Sequence of endothelial nitric oxide synthase (eNOS), endogenous, human umbilical vein endothelial cells (HUVECs) (human) (P29474 2-1203 limits assumed): as the sequence (P29474 2-1203 limits assumed) above

On to “phospho-Ser473-Akt, endogenous, human umbilical vein endothelial cells (HUVECs) (from UniProt P31749 1-480) (enzyme)”, for which, in experiment [1], the fold increase of phospho-Akt enrichment in the eNOS IP, statin plus recombinant hsp90 vs statin alone was above 3 fold. “recombinant hsp90 (expressed from hsp90 cDNA, gift of Dr W. C. Sessa)”: the increase in nitrite production, co-transfected COS cells in experiment [2] is 49%; in experiment [3], 40%. As to “Myc-tagged active Akt (T308D/S473D) (from UniProt P31749 1-480) (enzyme)”, in experiment [2], the increase in nitrite production, co-transfected COS cells was found to be 64%; the increase over basal level of nitrite production, COS cells co-transfected with WT-eNOS, active Akt and also recombinant hsp90 came to 152%.
